Measurements published in patent publication US20210087281A1 (AGOMAB THERAPEUTICS, published 2021).

Experiments:
[1] = biological target: T1, native human MET on living cells (human, UniProt P08581 25-1390); assay: cell-based or functional assay
[2] = biological target: T2, native mouse MET on living cells (mouse, UniProt P16056 25-1379); assay: cell-based or functional assay
[3] = biological target: T1, native human MET on living cells; assay: cell-based or functional assay; remark: listed apart in the source
[4] = biological target: T2, native mouse MET on living cells; assay: cell-based or functional assay; remark: listed apart in the source
[5] = biological target: T1, native human MET on living cells; assay: cell-based or functional assay; remark: listed apart in the source
[6] = biological target: T2, native mouse MET on living cells; assay: cell-based or functional assay; remark: listed apart in the source
[7] = biological target: T1, native human MET on living cells; assay: cell-based or functional assay; remark: listed apart in the source
[8] = biological target: T2, native mouse MET on living cells; assay: cell-based or functional assay; remark: listed apart in the source
[9] = biological target: T1, native human MET on living cells; assay: flow cytometry, A549 cells
Outline: (§1)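 Chimeric anti-MET antibodies were incubated with living cells expressing native MET, human on A549 and mouse on MLP29. Binding was detected by flow cytometry with phycoerythrin-conjugated anti-human IgG1. Commercial anti-MET antibodies with matching PE secondaries served as positive controls.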

[10] = biological target: T2, native mouse MET on living cells; assay: flow cytometry, MLP29 cells
Outline: as §1

[11] = biological target: human MET ECD mutant I (mutations 6, 7, 8) (human) (UniProt P08581); assay: ELISA, MET ECD in solid phase, mAb 0-50 nM
[12] = biological target: human MET ECD mutant J (mutations 6, 7) (human) (UniProt P08581); assay: ELISA, MET ECD in solid phase, mAb 0-50 nM
human MET ECD = biological target: T3, human MET ECD (human, UniProt P08581 25-932); assay: ELISA, MET ECD in solid phase, mAb 0-20 nM
T3 construct: range 1-932; recombinant ECD made by the applicants; the stated range begins at residue 1, so it includes the signal peptide of the entry; also called hMET; hMET ECD
Outline: (§2)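 Binding is determined by ELISA in which coated MET extracellular domain captures llama-human chimeric IgG1 applied in solution across a concentration series. Protein A-purified material from transient mammalian expression is used.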

mouse MET ECD = biological target: T4, mouse MET ECD (mouse, UniProt P16056 25-931); assay: ELISA, MET ECD in solid phase, mAb 0-20 nM
T4 construct: range 1-931; recombinant ECD made by the applicants; the stated range begins at residue 1; also called mMET; mMET ECD
Outline: as §2

[13] = biological target: T5, human MET-Fc (R&D Systems) (human, UniProt P08581 25-932); assay: competition ELISA, hMET-Fc in solid phase, competitor 0.3 nM biotinylated hHGF
T5 construct: extracellular domain; bought chimeric protein; also called hMET; not shown: Fc portion of human IgG1
Outline: (§3)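 First, HGF is biotinylated at the N-terminus via NHS-LC-biotin. Next, the coated chimeric receptor is incubated with this tracer plus antibody at rising concentrations, 0-120 nM. Finally, IC₅₀ and IMAX (maximal % competition reached at saturation) are derived.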

[14] = biological target: T6, mouse MET-Fc (R&D Systems) (mouse, UniProt P16056 25-929, limits assumed); assay: competition ELISA, mMET-Fc in solid phase, competitor 0.3 nM biotinylated mHGF
T6 construct: bought chimeric protein; also called mMET; not shown: Fc part
Outline: as §3

T1 sequence (P08581 25-1390): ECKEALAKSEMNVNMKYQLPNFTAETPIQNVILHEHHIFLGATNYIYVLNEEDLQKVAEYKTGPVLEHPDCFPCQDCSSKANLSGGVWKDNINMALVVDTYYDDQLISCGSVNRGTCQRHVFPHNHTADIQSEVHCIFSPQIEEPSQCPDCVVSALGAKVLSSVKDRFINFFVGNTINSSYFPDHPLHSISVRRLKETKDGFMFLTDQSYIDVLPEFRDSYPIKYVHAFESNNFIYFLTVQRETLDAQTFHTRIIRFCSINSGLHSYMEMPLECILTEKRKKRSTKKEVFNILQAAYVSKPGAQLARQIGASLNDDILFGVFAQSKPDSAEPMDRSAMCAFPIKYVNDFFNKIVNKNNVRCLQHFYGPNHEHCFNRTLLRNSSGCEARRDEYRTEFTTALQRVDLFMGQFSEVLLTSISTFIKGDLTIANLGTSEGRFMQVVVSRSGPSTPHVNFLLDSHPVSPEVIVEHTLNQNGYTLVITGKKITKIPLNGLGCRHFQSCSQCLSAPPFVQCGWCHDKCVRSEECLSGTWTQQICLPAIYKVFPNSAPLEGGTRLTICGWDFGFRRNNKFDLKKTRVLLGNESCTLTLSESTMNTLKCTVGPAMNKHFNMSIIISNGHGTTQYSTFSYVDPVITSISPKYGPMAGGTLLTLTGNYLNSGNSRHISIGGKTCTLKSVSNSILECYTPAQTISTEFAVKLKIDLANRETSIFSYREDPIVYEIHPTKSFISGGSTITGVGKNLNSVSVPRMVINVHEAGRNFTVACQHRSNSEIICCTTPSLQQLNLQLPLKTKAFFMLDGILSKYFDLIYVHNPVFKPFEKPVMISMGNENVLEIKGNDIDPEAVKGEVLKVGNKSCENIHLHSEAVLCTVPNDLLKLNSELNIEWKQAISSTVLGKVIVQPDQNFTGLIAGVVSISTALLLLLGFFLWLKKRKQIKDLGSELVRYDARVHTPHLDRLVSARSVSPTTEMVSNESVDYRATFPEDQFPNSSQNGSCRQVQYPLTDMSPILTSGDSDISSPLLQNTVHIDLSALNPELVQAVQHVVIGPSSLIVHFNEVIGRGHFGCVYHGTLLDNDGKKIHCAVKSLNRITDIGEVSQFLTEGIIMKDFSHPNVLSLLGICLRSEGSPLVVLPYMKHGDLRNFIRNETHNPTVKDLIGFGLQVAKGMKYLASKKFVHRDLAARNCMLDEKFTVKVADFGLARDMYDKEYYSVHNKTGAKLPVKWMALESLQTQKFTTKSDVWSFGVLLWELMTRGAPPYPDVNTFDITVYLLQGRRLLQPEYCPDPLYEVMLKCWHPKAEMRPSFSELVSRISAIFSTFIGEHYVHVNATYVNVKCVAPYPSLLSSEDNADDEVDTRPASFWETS
T3 sequence (P08581 25-932 limits assumed, form in doubt): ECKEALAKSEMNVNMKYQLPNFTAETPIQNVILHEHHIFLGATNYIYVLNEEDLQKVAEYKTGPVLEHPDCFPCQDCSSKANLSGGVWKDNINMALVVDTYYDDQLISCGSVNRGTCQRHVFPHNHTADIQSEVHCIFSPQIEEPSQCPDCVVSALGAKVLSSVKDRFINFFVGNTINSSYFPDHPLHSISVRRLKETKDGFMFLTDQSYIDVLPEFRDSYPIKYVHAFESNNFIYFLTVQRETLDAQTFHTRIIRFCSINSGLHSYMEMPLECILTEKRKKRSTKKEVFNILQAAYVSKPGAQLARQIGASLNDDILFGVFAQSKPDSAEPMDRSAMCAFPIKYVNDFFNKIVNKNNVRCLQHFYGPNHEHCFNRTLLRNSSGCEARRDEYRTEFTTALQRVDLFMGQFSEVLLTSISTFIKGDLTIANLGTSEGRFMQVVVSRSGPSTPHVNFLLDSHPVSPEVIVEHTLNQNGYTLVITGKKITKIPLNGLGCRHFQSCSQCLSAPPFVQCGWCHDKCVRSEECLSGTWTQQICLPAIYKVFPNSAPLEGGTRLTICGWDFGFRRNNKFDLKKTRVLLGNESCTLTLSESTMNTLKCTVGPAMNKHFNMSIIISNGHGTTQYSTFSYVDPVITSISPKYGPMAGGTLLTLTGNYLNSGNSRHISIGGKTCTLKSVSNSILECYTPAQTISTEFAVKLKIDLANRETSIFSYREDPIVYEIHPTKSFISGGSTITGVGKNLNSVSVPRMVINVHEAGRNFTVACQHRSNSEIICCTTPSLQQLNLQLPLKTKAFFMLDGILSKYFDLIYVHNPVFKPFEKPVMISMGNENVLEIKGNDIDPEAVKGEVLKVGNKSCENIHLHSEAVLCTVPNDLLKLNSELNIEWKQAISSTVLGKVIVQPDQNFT
T5 sequence (P08581 25-932): as the sequence (P08581 25-932 limits assumed, form in doubt) above

phospho-MET ELISA EC50, A549 cells [1]: 0.41 nM | phospho-MET ELISA EMAX (% HGF activity), A549 cells [1]: 95.7% | phospho-MET ELISA EC50, MLP29 cells [2]: 0.37 nM | phospho-MET ELISA EMAX (% HGF activity), MLP29 cells [2]: 97.8% | scatter score 0-4, HPAF-II, 0.001 nM [3]: 0 score | scatter score 0-4, HPAF-II, 0.004 nM [3]: 0 score | scatter score 0-4, HPAF-II, 0.012 nM [3]: 1 score | scatter score 0-4, HPAF-II, 0.037 nM [3]: 2 score | scatter score 0-4, HPAF-II, 0.111 nM [3]: 3 score | scatter score 0-4, HPAF-II, 0.333 nM [3]: 4 score | scatter score 0-4, HPAF-II, 1.000 nM [3]: 4 score | scatter score 0-4, HPAF-II, 3.000 nM [3]: 4 score | scatter score 0-4, HPAF-II, 9.000 nM [3]: 4 score | scatter score 0-4, MLP29, 0.001 nM [4]: 0 score | scatter score 0-4, MLP29, 0.004 nM [4]: 0 score | scatter score 0-4, MLP29, 0.012 nM [4]: 0 score | scatter score 0-4, MLP29, 0.037 nM [4]: 1 score | scatter score 0-4, MLP29, 0.111 nM [4]: 2 score | scatter score 0-4, MLP29, 0.333 nM [4]: 4 score | scatter score 0-4, MLP29, 1.000 nM [4]: 4 score | scatter score 0-4, MLP29, 3.000 nM [4]: 4 score | scatter score 0-4, MLP29, 9.000 nM [4]: 4 score | branches per spheroid, LOC cells, 0.5 nM [7]: 13.7 branches | branches per spheroid, LOC cells, 2.5 nM [7]: 19 branches | branches per spheroid, LOC cells, 12.5 nM [7]: 22.3 branches | branches per spheroid, MLP29 cells, 0.5 nM [8]: 24.7 branches | branches per spheroid, MLP29 cells, 2.5 nM [8]: 34.3 branches | branches per spheroid, MLP29 cells, 12.5 nM [8]: 29.3 branches | EC50 [9]: 0.296 nM | EMAX [9]: 117 % relative to control | EC50 [10]: 0.214 nM | EMAX [10]: 116 % relative to control | % binding (EMAX) compared to WT MET [11]: 100 % WT MET ECD | % binding (EMAX) compared to WT MET [12]: 91.2 % WT MET ECD | EC50 (human MET ECD): 0.067 nM | EMAX (OD450) (human MET ECD): 2.83 AU | EC50 (mouse MET ECD): 0.057 nM | EMAX (OD450) (mouse MET ECD): 2.98 AU | IC50 [13]: 0.49 nM | IMAX [13]: 63.2% | IC50 [14]: 0.53 nM | IMAX [14]: 62.9%
B1: 71G3 chimeric llama-human IgG1 mAb (antibody, V domains shown)
VH: QVQLVESGGGLVQPGGSLRVSCAASGFTFSTYYMSWVRQAPGKGLEWVSDIRTDGGTYYADSVKGRFTMSRDNAKNTLYLQMNSLKPEDTALYYCARTRIFPSGYDYWGQGTQVTVSS
VL: QAVVTQEPSLSVSPGGTVTLTCGLSSGSVTTSNYPGWFQQTPGQAPRTLIYNTNSRHSGVPSRFSGSISGNKAALTIMGAQPEDEADYYCSLYPGSTTVFGGGTHLTVL
notes: llama VH on human IgG1 CH1-CH2-CH3, llama VL on human lambda CL
protection from staurosporine, viability EC50, MCF10A cells [5]: 5.04 nM | protection from staurosporine, viability EMAX, MCF10A cells [5]: 65.2% | protection from staurosporine, viability EC50, MLP29 cells [6]: 4.85 nM | protection from staurosporine, viability EMAX, MLP29 cells [6]: 62.3%
